Tests used:
[1] = target: T1, Hsc70 (Homo sapiens, UniProt P11142); assay: ATPase activity of Hsc70 (malachite green); assay type: biochemical; conditions: no peptide; "usually about"
T1 construct: 6X His-tag (TEV-cleavable) (cleaved yes); made in house; host or cells: E. coli Rosetta (DE3)
Text: Hsp70s consist of an nucleotide-binding domain (NBD) and a substrate-binding domain (SBD). Hsc70 works using an allosteric mechanism whereby substrate binding at the SBD stimulates the ATP hydrolysis rate at the nucleotide-binding domain. The basal ATPase rate of Hsp70 is low, usually about 0.05 ± 0.009 mol Pi/mol protein, and increases when it is stimulated by binding of a peptide to the canonical site in the SBD. We measured the ability of SNAP-25 peptides SNNP and SNCP to stimulate the ATPase rate of Hsc70 (Fig. 5A). SNNP and SNCP binding cause a 1.5-fold increase of the Hsc70 ATPase rate over basal (observed rates upon addition of SNNP and SNCP were 0.089 ± 0.008 and 0.080 ± 0.005, respectively). In order to confirm that peptides are indeed binding at the canonical binding site of Hsc70, we used the V438F mutant that blocks the binding site ([37]). […] The addition of CSPαJ stimulates the ATPase activity of Hsc70 ∼4-fold with and without peptides.
Figure 5 SNN and SNC peptides interact with the canonical substrate-binding site of Hsc70.A, ATPase activity of Hsc70 (2 μM) in the absence (gray) and presence of 200 μM SNNP (orange) and SNCP (green) peptides. Error bars represent the SDs from three independent experiments. B, binding of SNAP-25 (black), SNNP (orange), LoopP (blue), and SNCP (green) peptides to Hsc70 followed by competition for FITC-p5 peptide using fluorescence anisotropy. Increasing concentrations of the competitors were added to a complex of Hsc70 (5 μM) and FITC-p5 peptide (50 nM). Error bars represent SDs from three independent experiments. […]
We performed ATPase assays to observe the activity of Hsc70 in the presence of SNAP25 peptides. […] Absorbance readings were taken at 620 nm using a BioTek plate reader. […]
(C) ATPase activity of Hsc70 (at 2 μM) in the absence (grey) and presence of 200 μM SNNP (orange) and L(Loop)-SNCP (green) peptides, and in the absence and presence of CSPa-J and CSPa-J/Apg2. The statistical significance was calculated using one-way ANOVA test with Sidak’s multiple comparison and the Hsc70 ATPase activity […]

[2] = target: T1, Hsc70; assay: Competition binding vs FITC-p5 by fluorescence anisotropy; conditions: Hsc70 5 μM, FITC-p5 50 nM, competitor 0 to 200 μM, phosphate buffer pH 7.4, overnight 4 °C, fluorescence anisotropy 485/516 nm, three independent experiments
Experimental: Figure 3 Hsc70 forms complexes with SNAP-25.A, native PAGE of SNAP-25 (10 μM) in the presence and absence of Hsc70 (2 μM). The difference in signal intensity of His-SNAP25 probed with antibody is likely due to altered epitope exposure upon formation of the SNAP-25-Hsc70 complex. B, binding of SNAP-25 (black), SNAP-25 SNN (SNNFR, orange), and SNC (SNCFR, green)) fragments to Hsc70 by competition followed by fluorescence anisotropy. Increasing concentrations of the competitors were added to a complex of Hsc70 (5 μM) and FITC-p5 peptide (50 nM). Error bars represent SDs from three independent experiments.
To pin down the regions in SNAP-25 where Hsc70 binds we expressed the individual SNN and SNC fragments of SNAP-25 and tested their ability to compete for Hsc70 binding to an FITC-labeled p5 peptide (ALLLSAPRR).
Figure 5 SNN and SNC peptides interact with the canonical substrate-binding site of Hsc70.A, ATPase activity of Hsc70 (2 μM) in the absence (gray) and presence of 200 μM SNNP (orange) and SNCP (green) peptides. Error bars represent the SDs from three independent experiments. B, binding of SNAP-25 (black), SNNP (orange), LoopP (blue), and SNCP (green) peptides to Hsc70 followed by competition for FITC-p5 peptide using fluorescence anisotropy. Increasing concentrations of the competitors were added to a complex of Hsc70 (5 μM) and FITC-p5 peptide (50 nM). Error bars represent SDs from three independent experiments. C, structure of the canonical substrate-binding site of human HspA1 (PDB 4po2) illustrating the location of Hsc70 residues Ile 403 and Ile 440 in red and green spheres, respectively (N.B., Hsc70 and HspA1 share […] sequence identity). The SBD is shown in gray, bound substrate in cyan sticks, and the side chain of the residue occupying the 0th position in the chaperone (“anchor residue”) in orange ball and sticks. For better visualization of the substrate-binding site, residues 512 to 613, 405 to 408, and 431 were removed in this illustration of the structure. D, the Ile region of the ^1H-^13 C HMQC spectra of Ile-^13CH3-labeled Hsc70 (40 μM) in the absence (black) and in the presence of unlabeled SNNP (orange) and SNCP (green) peptides (200 μM).
To further characterize the binding of the SNAP-25 peptides to Hsc70 we used competition assays as above. Peptides SNNP, LOOPP, and SNCP were titrated against the protein-peptide complex of Hsc70 and FITC-p5 and fluorescence anisotropy was monitored to assess how well the SNAP-25 peptides displaced the model peptide.
Direct binding between the p5 peptide (QSRLLLSAPRRAA) and Hsc70 was carried out as described previously ([52]). […] Fluorescence anisotropy was measured in a BioTek plate reader (BioTek) with excitation at 485 nm and emission at 516 nm.
The measured anisotropy values were converted to fraction bound (fb) using the equation: fb=(r−r0)/(rb−r0) where r is the anisotropy value at any point, r0 is the anisotropy value of FITC-p5 in the absence of Hsc70, and rb is the anisotropy value of FITC-p5 when fully bound to Hsc70. […]
For competition assays, the concentrations of Hsc70 and FITC-P5 were kept constant at 5 μM and 50 nM, respectively, and the competitor substrate was titrated from 0 to 200 μM in phosphate buffer. […] Fluorescent anisotropy was measured as described above. […]

[3] = SNAP-25 aggregation kinetics by optical density; assay type: biochemical; conditions: without SNAP-25, 37 °C
Experimental: (§1) To test our hypothesis that Hsc70 inhibits SNAP-25 aggregation, we monitored the aggregation kinetics of recombinantly expressed SNAP-25 in the absence and presence of Hsc70 by following optical density at 360 nm (Fig. 2). […] This lag time was elongated to ∼65 h in the presence of Hsc70. In neurons, Hsc70 works in collaboration with its co-chaperone CSPα. […] (Fig. S2A). Apg2 is a member of the Hsp110 family, which is known to suppress protein aggregation ([36]). […] (Fig. S2B).
(§2) Figure 2 Hsc70 delays the aggregation of SNAP-25. Aggregation kinetics of SNAP-25 (50 μM) at 37 °C. Optical density of SNAP-25 was recorded at 360 nm in the absence (black) and in the presence of Hsc70 (5 μM, red), and Hsc70+CSPαJ (5 μM each, blue).
(§3) Aggregation of SNAP-25 at 50 μM was followed by measuring the A360 in a 96-well plate using a BioTek plate reader (BioTek), at 37 °C with shaking at 300 rpm, in the absence and presence of Hsc70 and CSPαJ at 5 μM each, and Apg2 at 0.5 μM. The aggregation buffer included 20 mM phosphate buffer pH 7.4, 100 μM MgCl2, and 100 mM KCl, and an ATP-experiment was carried out using regeneration system (5 mM 2-phosphoenolpyruvate, 0.05 mg/ml pyruvate kinase, and 5 mM ATP), as described previously ([51]).
(§4) Figure SI 2. Apg2 enhances the effect of Hsc70 on SNAP-25. (A) Aggregation kinetics of SNAP-25 (50 μM) at 37 °C. OD600 of SNAP-25 was recorded in the absence (black) and in the presence of Hsc70, Hsc70+CSPa-J (blue) and Hsc70+CSPa-J+Apg2 (turquoise). […]
(§5) concentrations are SNAP-25 (50 μM), Hsc70 (5 μM), CSPa-J (5 μM) and Apg2 (0.5 μM).
(§6) (B) Aggregation kinetics of SNAP-25 (50 μM) at 37 °C. OD600 of SNAP-25 was recorded in the absence (black) and in the presence of Apg2 (blue). […]

[4] = tested on: SNAP-25; assay: SNAP-25 aggregation kinetics by optical density; assay type: biochemical; conditions: SNAP-25 50 μM, Hsc70 5 μM, 37 °C, shaking 300 rpm, OD 360 nm, 20 mM phosphate buffer pH 7.4, 100 μM MgCl2, 100 mM KCl
Experimental: as §1, §2, §3, §4, §5, §6

[5] = tested on: SNARE complex with syntaxin and synaptobrevin; assay: SDS-resistant SNARE complex formation (SDS-PAGE); assay type: biochemical; conditions: with Hsc70, mixed with syntaxin and synaptobrevin, 1 M NaCl, 4 °C
Experimental: We took aliquots of SNAP-25 at different time points of the aggregation reaction (at 0 h, in lag phase and at 64 h in the log or saturation phase, Fig. 2A) and mixed them with the SNARE motifs of syntaxin and synaptobrevin to allow the formation of the SNARE complex.
Figure 6 Hsc70 facilitates incorporation of SNAP-25 into the SNARE complex in vitro. SDS-PAGE of SNAP-25 taken from the aggregation reactions (Fig. 2) at 0 h and 64 h after the initiation, without (left) and with Hsc70 (right), and mixed with syntaxin and synaptobrevin for the time indicated below each SDS-PAGE. SNAP-25 is expressed and purified from E. coli; a minor amount of the bacterial Hsp70 homolog DnaK (∼70 kDa) may copurify with SNAP-25, explaining the presence of higher molecular weight bands, with its proteolysis potentially occurring during ∼64-h SNAP-25 aggregation reactions. For synaptobrevin, we attribute the higher molecular weight bands to incomplete cleavage of GST-tagged synaptobrevin.
The SNARE motifs were mixed in an equimolar ratio in the following order: synaptobrevin-2 (29–93), syntaxin-1A (191–253), and SNAP-25 taken from the aggregation reaction, in the presence of 1 M NaCl. The assembly reaction was incubated at 4 °C overnight while rotating. The SNARE motifs were concentrated using a 30-kDa molecular weight cutoff Amicon centrifugation filters and run on 4 to 20% gradient SDS-PAGE.

[6] = tested on: SNAP-25; assay: Far-UV CD; assay type: physicochemical; conditions: far-UV CD 200–250 nm, 22 °C (Fig. S1)
Experimental: SNAP-25 has four native cysteines that are palmitoylated upon interaction with the membrane. […] For all of our studies, the SNAP-25 CS mutant was used unless otherwise mentioned.
The far-UV CD spectra (200–250 nm) were recorded on a Jasco J-1500 Circular Dichroism Spectrophotometer at 22 °C. The SNAP-25 WT, SNAP-25, and mixture of SNAP-25 and Hsc70 were taken in a 1 mm path length quartz cuvette. Figures show the average of ten scans where the buffer baselines were subtracted. Data were plotted using software using the Origin (Pro) program (OriginLab Corp).

T1 sequence (P11142 whole entry): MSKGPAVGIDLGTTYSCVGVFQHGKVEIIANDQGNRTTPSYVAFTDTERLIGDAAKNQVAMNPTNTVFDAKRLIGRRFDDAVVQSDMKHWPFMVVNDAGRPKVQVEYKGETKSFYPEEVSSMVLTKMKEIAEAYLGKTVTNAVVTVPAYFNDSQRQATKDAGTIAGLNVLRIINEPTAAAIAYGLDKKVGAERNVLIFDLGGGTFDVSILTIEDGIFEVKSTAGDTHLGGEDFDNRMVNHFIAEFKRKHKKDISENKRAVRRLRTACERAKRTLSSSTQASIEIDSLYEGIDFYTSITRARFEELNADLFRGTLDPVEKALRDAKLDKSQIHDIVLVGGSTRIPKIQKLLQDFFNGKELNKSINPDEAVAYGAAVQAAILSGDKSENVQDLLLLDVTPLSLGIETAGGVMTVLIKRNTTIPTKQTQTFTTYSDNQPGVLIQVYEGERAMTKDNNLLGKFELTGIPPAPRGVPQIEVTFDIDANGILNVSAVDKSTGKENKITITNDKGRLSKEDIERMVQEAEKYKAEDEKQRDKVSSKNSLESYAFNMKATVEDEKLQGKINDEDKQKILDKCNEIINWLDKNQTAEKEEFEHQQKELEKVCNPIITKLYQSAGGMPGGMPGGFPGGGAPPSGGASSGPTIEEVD

70-kDa heat shock protein [Hsp70]
basal ATPase rate [1]: about 0.05 ± 0.009 mol Pi/mol protein

SNC: SNAP-25 SNC fragment, SNCFR141–201
competition with p5 peptide for binding to Hsc70 [2]: competed with p5 peptide for binding to Hsc70

SNN: SNAP-25 SNN fragment, SNNFR 11–82
competition with p5 peptide for binding to Hsc70 [2]: competed with p5 peptide for binding to Hsc70

heat shock cognate 70 [Hsc70]
aggregation of the chaperone alone ([3]; OD 360 nm (Fig. 2)): no aggregation | aggregation of the chaperone alone ([3]; OD600 (Fig. S2A), Hsc70 5 μM, CSPa-J 5 μM, Apg2 0.5 μM): exhibit no aggregation | lag time of SNAP-25 aggregation in the presence of Hsc70 [4]: ~65 h | SNARE complex formation by SNAP-25 taken at 0 h and 64 h of aggregation in the presence of Hsc70 [5]: can productively form a SNARE complex | conformational change upon Hsc70-SNAP-25 interaction [6]: no significant conformational change

Source: paper PMC11697113, “The Hsc70 system maintains the synaptic SNARE protein SNAP-25 in an assembly-competent state and delays its aggregation [drawing 1]” (The Journal of Biological Chemistry, 2024)
